Data on one substance can be found in patent US20250368754A1.

This experiment addresses human LTβR on A375 cells (human) (UniProt P36941). Briefly: cell-based or functional assay.

human LTβR on A375 cells (human), sequence (P36941 31-435): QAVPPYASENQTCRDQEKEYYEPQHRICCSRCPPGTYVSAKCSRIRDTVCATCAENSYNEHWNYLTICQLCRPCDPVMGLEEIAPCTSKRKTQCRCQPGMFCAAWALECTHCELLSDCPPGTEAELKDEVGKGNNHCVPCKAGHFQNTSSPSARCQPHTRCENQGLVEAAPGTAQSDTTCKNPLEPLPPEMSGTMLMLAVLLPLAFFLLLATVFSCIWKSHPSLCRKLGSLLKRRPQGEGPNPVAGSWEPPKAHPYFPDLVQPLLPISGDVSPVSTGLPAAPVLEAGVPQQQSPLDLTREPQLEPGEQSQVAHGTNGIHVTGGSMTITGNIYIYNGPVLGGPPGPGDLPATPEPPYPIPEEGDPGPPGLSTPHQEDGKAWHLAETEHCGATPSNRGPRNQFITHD

In the case of “recombinant human LIGHT (R&D systems) (from UniProt O43557 74-240) (ligand)”, the IL-8 secretion of A375 cells, EC50 (FIG. 15a) amounted to 0.226 nM and the IL-8 secretion of A375 cells, EC50 (FIG. 15b) worked out at 0.19 nM.
